Source: the supplement of paper PMC9170038

Test system: MS2 coat protein
Assay: apparent KD of MS2 coat protein; higher = weaker reporter binding
Settings: Eterna round: R107
Outline: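 Apparent KD stands for the median, per design, of fits to normalised cluster binding curves. The curves came from titrating on-chip-transcribed RNA switches on Illumina sequencing clusters with SNAP-549-labelled MS2 coat protein, twofold from 0.7 or 1.5 nM to 3 µM. Buffer was 100 mM Tris-HCl pH 7.5, 80 mM KCl, 4 mM MgCl2, without or with constant ligand.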

[1] = input ligand: theophylline 20 uM
[2] = input ligand: theophylline 2 mM
[3] = input ligand: tryptophan 2.4 mM

Row | Sequence | apparent KD of MS2 coat protein (input ligand: arginine 13.2 mM) | apparent KD of MS2 coat protein (input ligand: none) | apparent KD of MS2 coat protein [1] | apparent KD of MS2 coat protein [2] | apparent KD of MS2 coat protein [3]
1 | CAGUCAGUCAGUCAAUGAGUGAGGCAUGAAGGAGCGUGGGAAACCACAGGUAGGUCGCAUGCGGAACAUGAGGAUCACCCAUGUU [SSArg A #4] | 0.0319 µM | 0.0272 µM | 0.0262 µM | 0.0268 µM | 0.0277 µM
2 | CAGUCUCUAGCGGCCGCCACUGUUCUGCUGGUGCUGCUGAACGAACAUGAGGAUCACCCAUGUCUCAGGACCGGGCUUCAGACUC [theeternabot_sameState_MS2_Trp_B_44] | 0.0224 µM | – | 0.0304 µM | 0.0333 µM | –
3 | CAUACUUUAGUAUGUUAUGUGGACAGUGAUACCAGAUACGAAAGUAUCCCUUGGCAGCACAACAUGAGGAUCACCCAUGUAUUUU [Theophylline A 4] | 0.0258 µM | – | 0.0222 µM | – | 0.0215 µM
4 | CAUGAAGUAACUGAUACCAGUGUACACAUGAGGAUCACCCAUGUGUUGGGUUUUGUUGUACACCCUUGGCAGCAGAAUCUUUAUG [AstrosExyTheB#8] | 0.0424 µM | – | 0.0843 µM | – | 0.0512 µM
5 | CAUGAUAAGUUGGAUACCAGCAUAUGGAACAACAUGAGGAUCACCCAUGUCAAAUGACAUUGCCCUUGGCAGCCACCUACUGUCA [theeternabot_sameState_MS2_Theo_B_5] | 0.0212 µM | – | 0.0191 µM | – | 0.0179 µM
6 | CCGCACAUGAGGAUCACCCAUGUCCGGGUUCGAGGACCGGUACGGCCGCCACUCGGACAUGUGCGCCCUUCAUGCACUGUAUAAA [Macetius] | 0.0389 µM | – | 0.158 µM | 0.239 µM | –
7 | CCGCCUGCCUCACAUGAGGAUCACCCAUGUCGAGGACCGGUACGGCCGCCACUCGUCGUCGGUAAUACAGGCAUUGAAUAAUAUA [Vetire] | 0.0121 µM | – | 0.0148 µM | 0.0121 µM | –
8 | CCGGCAUGUCGAAGGAGCGUCACAUGAGGAUCACCCAUGUACAUGAGGAUCACCCAUGUGUGACAGGUAGGUCGCGGCGGCCAGG [Exclusion Arginine B GF7] | 0.108 µM | 0.141 µM | 0.178 µM | 0.197 µM | 0.158 µM
9 | CCGGGCCCGGGAGACCGGGCCCGGACUGAAGGAGCGGGAAUAAACCCAGGUAGGUCGCAGAGAUCCACAUGAGGAUCACCCAUGU [!0.U] | 0.133 µM | 0.0545 µM | 0.0517 µM | 0.0365 µM | 0.0368 µM
10 | CCGGUUAGGACGGCCGCCACUGUGGCUACGGUACAUGAGGAUCACCCAUGUUUGUGGUUGAUCUACAGGACCGGGUCCUGACACG [Eronri] | 0.124 µM | 0.247 µM | 1.21 µM | 0.806 µM | 0.247 µM
11 | CCUAUGCAGUCGGCCGCCACUGAAAACAGCCUCAAAAUAAAUAUAACAUGAGGAUCACCCAUGUACAGGACCGGGACUGUAUAGG [Ex Tryptophan B 11] | 0.081 µM | – | 0.2 µM | 0.18 µM | –
12 | CCUAUGCAGUCGGCCGCCACUGUACAUGAGGAUCACCCAUGUUCCAAAAUAAAAGGAACUGAAAUCAGGACCGGGACUGUAUAGG [Ex Tryptophan B 1] | 0.0294 µM | 0.0333 µM | 0.0372 µM | 0.039 µM | 0.0326 µM
13 | CCUCAAUCGUCGGCCGCCACUGGAUCAUGCGGAUACAUGAGGAUCACCCAUGUGGGUGUGGUACGCAGGACCGGGACAAGACCCG [#15 Same State - Tryptophan B] | 0.164 µM | – | 0.579 µM | 1.03 µM | –
14 | CCUGCGUUUCUUUUCUUUCGCAGGAAUGAUACCAGUAGGGAAACCUACCCUUGGCAGCAUGGGUAACAUGAGGAUCACCCAUGUU [SSThA NP+V+V2 #5 Same Structure] | 0.0932 µM | – | 0.392 µM | – | 0.343 µM
15 | CGAAAGCAGUGAUCCAGCUUUCGCCUGGAAGGAGCGAGCGAAAGCUCAGGUAGGUCGCCAGAAACAUGAGGAUCACCCAUGUAAU [(A)''-(M)'-(A)'-(Arg1)-(Arg2)-(M1)-(M2)_Design8] | 0.0366 µM | 0.0654 µM | 0.082 µM | 0.145 µM | 0.0755 µM
16 | CGAUACGUAACUGAUACCAGUGUACUGACAUGAGGAUCACCCAUGUUGGGUUUUGUUGUACACCCUUGGCAGCAGAAUCGUAUCG [AstrosExyTheB#18] | 0.0521 µM | – | 0.0775 µM | – | 0.0599 µM
17 | CGAUAUAAGACGGCCGCCACUAUUAUGUAACAAAAUAAACAUGAGGAUCACCCAUGUACAUGGGAUAGGACCGGGUCCAAUAACG [#21 Same State - Tryptophan B] | 0.0987 µM | – | 0.148 µM | 0.151 µM | –
18 | CGAUGAUGAAGGGAUACCAGAAAUGGUAUUCCUUUAUUUCUUACAUGAGGAUCACCCAUGUUCCCUUGGCAGCUUUUUAUCAUCG [ETHB #6] | 0.0493 µM | – | 0.0826 µM | – | 0.0644 µM
